Assay results published in patent US20250262210A1 (TRUSTEES OF COLUMBIA UNIVERSITY IN THE CITY OF NEW YORK, published 2025).

Assays:
WDR6 = target: T1, WDR6 (human, UniProt Q9NNW5 1-1121); assay: IP/MS, LZTR1 wild type-FLAG, U87
T1 sequence (looked up): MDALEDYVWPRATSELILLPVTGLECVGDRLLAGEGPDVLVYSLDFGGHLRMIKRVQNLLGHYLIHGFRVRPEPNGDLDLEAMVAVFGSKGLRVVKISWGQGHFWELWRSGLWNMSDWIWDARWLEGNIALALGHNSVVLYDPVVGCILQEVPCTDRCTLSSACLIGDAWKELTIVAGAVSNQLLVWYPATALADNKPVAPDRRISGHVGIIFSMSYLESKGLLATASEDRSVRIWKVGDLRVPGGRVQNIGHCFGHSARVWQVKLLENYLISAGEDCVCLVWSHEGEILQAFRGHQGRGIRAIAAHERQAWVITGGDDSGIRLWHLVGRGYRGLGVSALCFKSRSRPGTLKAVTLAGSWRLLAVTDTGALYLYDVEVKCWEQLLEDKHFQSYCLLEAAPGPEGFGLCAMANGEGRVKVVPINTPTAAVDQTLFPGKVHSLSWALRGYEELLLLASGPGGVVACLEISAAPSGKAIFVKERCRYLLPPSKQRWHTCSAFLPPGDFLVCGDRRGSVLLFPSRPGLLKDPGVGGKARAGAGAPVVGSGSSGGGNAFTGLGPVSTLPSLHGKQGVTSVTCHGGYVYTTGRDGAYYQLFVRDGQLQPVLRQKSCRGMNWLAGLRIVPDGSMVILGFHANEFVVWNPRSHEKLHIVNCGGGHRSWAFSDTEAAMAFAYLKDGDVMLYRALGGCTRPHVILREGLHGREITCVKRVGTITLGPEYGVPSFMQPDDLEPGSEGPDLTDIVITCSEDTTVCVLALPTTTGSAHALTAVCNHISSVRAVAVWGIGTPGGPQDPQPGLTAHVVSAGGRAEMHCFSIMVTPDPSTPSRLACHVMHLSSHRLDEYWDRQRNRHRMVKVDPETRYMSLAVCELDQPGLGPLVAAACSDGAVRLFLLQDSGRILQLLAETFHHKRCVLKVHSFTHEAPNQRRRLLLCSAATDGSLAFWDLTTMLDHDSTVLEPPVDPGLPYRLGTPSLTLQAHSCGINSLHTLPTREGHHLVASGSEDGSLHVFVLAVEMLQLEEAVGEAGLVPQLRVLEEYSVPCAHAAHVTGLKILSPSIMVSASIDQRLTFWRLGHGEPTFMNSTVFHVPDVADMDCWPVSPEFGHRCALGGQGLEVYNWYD
Method in brief: (§1)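 Gel slices were reduced with 5 mM DTT, alkylated with 11 mM IAA and digested overnight at 37° C. with trypsin. Peptides were analysed on an Orbitrap Fusion Tribrid by LC-MS/MS.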

LAMB3 = target: T2, LAMB3 (human, UniProt Q13751 18-1172); assay: IP/MS, LZTR1 wild type-FLAG, U87
T2 sequence (looked up): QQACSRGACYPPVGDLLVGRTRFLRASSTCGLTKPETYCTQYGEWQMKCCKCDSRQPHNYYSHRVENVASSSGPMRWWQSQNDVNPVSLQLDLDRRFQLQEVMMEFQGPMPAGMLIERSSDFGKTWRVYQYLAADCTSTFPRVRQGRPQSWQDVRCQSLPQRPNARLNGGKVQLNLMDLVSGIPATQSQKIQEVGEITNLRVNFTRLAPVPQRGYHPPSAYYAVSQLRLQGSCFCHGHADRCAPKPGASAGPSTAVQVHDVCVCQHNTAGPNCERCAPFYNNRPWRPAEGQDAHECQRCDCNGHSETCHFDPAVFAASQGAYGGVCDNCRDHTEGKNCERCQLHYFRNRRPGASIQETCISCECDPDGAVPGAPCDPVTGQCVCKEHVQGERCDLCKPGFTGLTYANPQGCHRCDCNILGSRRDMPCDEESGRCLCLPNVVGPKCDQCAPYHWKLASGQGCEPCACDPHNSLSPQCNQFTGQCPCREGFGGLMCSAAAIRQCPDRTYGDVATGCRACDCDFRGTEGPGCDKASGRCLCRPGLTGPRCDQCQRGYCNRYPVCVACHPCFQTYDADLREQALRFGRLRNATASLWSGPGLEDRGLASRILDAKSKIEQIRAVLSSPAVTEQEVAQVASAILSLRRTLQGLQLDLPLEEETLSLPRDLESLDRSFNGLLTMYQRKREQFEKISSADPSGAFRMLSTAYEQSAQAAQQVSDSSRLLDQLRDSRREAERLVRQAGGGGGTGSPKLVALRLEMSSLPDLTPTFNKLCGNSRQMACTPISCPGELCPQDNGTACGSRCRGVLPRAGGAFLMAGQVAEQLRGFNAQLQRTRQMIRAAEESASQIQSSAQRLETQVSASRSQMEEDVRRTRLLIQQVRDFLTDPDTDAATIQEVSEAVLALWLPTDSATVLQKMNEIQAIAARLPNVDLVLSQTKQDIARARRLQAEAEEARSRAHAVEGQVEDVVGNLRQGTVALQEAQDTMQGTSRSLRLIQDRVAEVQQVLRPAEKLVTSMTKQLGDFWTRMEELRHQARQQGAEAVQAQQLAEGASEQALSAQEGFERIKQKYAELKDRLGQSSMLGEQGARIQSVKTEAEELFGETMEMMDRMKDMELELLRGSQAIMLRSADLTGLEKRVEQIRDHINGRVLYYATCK
Method in brief: as §1

B1: LZTR1-FLAG (other, human, UniProt Q8N653 1-840, looked up)
chain: MAGPGSTGGQIGAAALAGGARSKVAPSVDFDHSCSDSVEYLTLNFGPFETVHRWRRLPPCDEFVGARRSKHTVVAYKDAIYVFGGDNGKTMLNDLLRFDVKDCSWCRAFTTGTPPAPRYHHSAVVYGSSMFVFGGYTGDIYSNSNLKNKNDLFEYKFATGQWTEWKIEGRLPVARSAHGATVYSDKLWIFAGYDGNARLNDMWTIGLQDRELTCWEEVAQSGEIPPSCCNFPVAVCRDKMFVFSGQSGAKITNNLFQFEFKDKTWTRIPTEHLLRGSPPPPQRRYGHTMVAFDRHLYVFGGAADNTLPNELHCYDVDFQTWEVVQPSSDSEVGGAEVPERACASEEVPTLTYEERVGFKKSRDVFGLDFGTTSAKQPTQPASELPSGRLFHAAAVISDAMYIFGGTVDNNIRSGEMYRFQFSCYPKCTLHEDYGRLWESRQFCDVEFVLGEKEECVQGHVAIVTARSRWLRRKITQARERLAQKLEQEAAPVPREAPGVAAGGARPPLLHVAIREAEARPFEVLMQFLYTDKIKYPRKGHVEDVLLIMDVYKLALSFQLCRLEQLCRQYIEASVDLQNVLVVCESAARLQLSQLKEHCLNFVVKESHFNQVIMMKEFERLSSPLIVEIVRRKQQPPPRTPLDQPVDIGTSLIQDMKAYLEGAGAEFCDITLLLDGHPRPAHKAILAARSSYFEAMFRSFMPEDGQVNISIGEMVPSRQAFESMLRYIYYGEVNMPPEDSLYLFAAPYYYGFYNNRLQAYCKQNLEMNVTVQNVLQILEAADKTQALDMKRHCLHIIVHQFTKVSKLPTLRSLSQQLLLDIIDSLASHISDKQCAELGADI
notes: Expressed in HEK 293T, HeLa or U87 cells; used as cell lysate; also called LZTR1 wild type-FLAG; LZTR1 WT; not shown: FLAG tag at the C-terminus
WDR6
  binding result: binds
LAMB3
  binding result: binds
